Experimental data from US20250152729A1 (CANCER RESEARCH TECHNOLOGY, published 2025).

T1: mouse SEMA4A expressed on expi293 cells (UniProt ID Q62178) (mouse, UniProt Q62178 33-760)
T1 construct: Transient transfection in expi293 cells
T1 sequence: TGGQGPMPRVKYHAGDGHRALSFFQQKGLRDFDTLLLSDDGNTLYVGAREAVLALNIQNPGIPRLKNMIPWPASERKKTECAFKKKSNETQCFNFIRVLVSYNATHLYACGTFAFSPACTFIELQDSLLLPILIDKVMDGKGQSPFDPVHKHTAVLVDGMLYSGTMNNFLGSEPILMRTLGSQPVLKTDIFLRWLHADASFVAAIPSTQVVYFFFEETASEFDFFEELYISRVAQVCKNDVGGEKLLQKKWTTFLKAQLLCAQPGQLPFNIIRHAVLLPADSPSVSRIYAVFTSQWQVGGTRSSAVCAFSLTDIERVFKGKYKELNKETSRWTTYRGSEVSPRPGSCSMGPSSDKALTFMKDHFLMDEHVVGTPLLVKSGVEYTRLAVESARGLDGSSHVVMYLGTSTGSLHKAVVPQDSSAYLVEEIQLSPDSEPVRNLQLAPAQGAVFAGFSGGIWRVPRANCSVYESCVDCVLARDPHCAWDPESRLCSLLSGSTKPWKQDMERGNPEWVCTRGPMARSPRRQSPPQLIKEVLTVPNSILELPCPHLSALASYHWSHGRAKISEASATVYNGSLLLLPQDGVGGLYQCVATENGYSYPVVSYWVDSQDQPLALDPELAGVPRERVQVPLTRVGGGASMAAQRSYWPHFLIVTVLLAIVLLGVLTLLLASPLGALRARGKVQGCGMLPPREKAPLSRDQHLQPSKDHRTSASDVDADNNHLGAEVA

T2: human SEMA4A expressed on cells (UniProt ID Q9H3S1, isoform 1) (human, UniProt Q9H3S1 33-761)
T2 sequence: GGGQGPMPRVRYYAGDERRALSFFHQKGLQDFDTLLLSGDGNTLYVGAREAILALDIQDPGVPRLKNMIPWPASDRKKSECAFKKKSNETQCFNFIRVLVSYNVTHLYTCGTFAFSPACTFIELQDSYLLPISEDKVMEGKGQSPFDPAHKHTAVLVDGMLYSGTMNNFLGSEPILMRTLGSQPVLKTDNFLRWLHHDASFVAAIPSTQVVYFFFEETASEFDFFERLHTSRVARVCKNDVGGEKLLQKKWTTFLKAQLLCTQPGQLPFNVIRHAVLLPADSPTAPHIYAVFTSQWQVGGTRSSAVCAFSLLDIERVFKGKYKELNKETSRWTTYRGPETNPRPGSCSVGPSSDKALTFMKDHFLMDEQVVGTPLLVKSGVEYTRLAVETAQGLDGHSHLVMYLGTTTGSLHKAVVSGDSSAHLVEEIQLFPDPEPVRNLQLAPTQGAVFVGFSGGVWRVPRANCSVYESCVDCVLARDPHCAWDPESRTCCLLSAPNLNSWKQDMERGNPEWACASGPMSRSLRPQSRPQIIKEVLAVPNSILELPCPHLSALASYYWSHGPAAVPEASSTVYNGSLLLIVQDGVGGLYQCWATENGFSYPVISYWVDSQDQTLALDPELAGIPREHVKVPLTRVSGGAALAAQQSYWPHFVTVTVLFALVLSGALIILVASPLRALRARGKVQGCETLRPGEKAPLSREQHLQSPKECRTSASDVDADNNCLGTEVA

B1: 5Hg5-5Lg2 human Alya IgG1 (antibody, V domains shown)
VH: EVQLVQSGAEVKKPGESLRISCKGSGYSFTDYWMHWVRQMPGKGLEWMGAIDTSDSYTSYNQKFKGQVTISADKSISTAYLQWSSLKASDTAMYYCARDYGNFYYYAMDYWGQGTLVTVSS
VL: QAVVTQEPSLTVSPGGTVTLTCRSSTGAVTTSNYANWFQQKPGQAPRTLIYGTNNRAPWTPARFSGSLLGGKAALTLLGAQPEDEAEYYCALWYSNHWVFGGGTKLTVL
notes: Humanised 5E3; human IgG1 Alya constant (239iCys, S442C, EU), lambda light chain; purified, unconjugated; also called 5HE5/5Lg2
B2: 5Hg2-5Lg6 human Alya IgG1 (antibody, V domains shown)
VH: QVQLVQSGAEVKKPGASVKVSCKASGYTFTDYWMHWVRQAPGQRLEWMGAIDTSDSYTSYNQKFKGRVTITRDTSASTAYMELSSLRSEDTAVYYCARDYGNFYYYAMDYWGQGTLVTVSS
VL: SYELTQPSSVSVSPGQTARITCRSSTGAVTTSNYANWFQQKPGQAPVLVIYGTNNRAPGIPERFSGSSSGTTVTLTISGAQVEDEADYYCALWYSNHWVFGGGTKLTVL
notes: Humanised 5E3; human IgG1 Alya constant (239iCys, S442C, EU), lambda light chain; purified, unconjugated

Columns and labels:
[1] = target: T1, mouse SEMA4A expressed on expi293 cells …; assay: Mirrorball direct binding, dilution series on expi293 cells transiently transfected with mouse SEMA4A, anti-human Alexa Fluor 647
[2] = target: T2, human SEMA4A expressed on cells …; assay: cell-based or functional assay
[3] = target: T2, human SEMA4A expressed on cells …; assay: Mirrorball epitope competition on MM.1S cells; competitor: fixed 5E3 mouse IgG1
From the text: The 5E3 epitope competition assay assessed the ability of the un-purified IgGs expressed in a human IgG1 backbone to compete for binding to the mouse 5E3 epitope on human SEMA4A endogenously expressed by MM.1S cells, a human multiple myeloma cell line. The assay utilised a secondary-Alexa Fluor 647 conjugate, 5E3 expressed in a mouse IgG1 (A) backbone (BioLegend®, San Diego, CA, 148402) and a Mirrorball fluorescence cytometer (SPT Labtech, UK). Binding of 5E3 mouse IgG1 to MM.1S cells was measured via an anti-mouse secondary labelled with Alexa Fluor 647 (Invitrogen, A21235) in the presence of a single concentration of each un-purified human IgG1. […] 10 μl undiluted un-purified IgG, contained in Expi293 expression medium (Gibco, UK, A1435101), were added to the assay plate (Greiner Bio-one, UK, 781906), followed by 10 ul of 1.2 nM 5E3 mouse IgG1 and 20 μl MM.1S cell suspension containing 1,500 cells that was spiked with 4 nM anti-mouse Alexa Fluor 647. The assay plate was incubated for 4 hours at room temperature, in the dark prior to reading on a Mirrorball fluorescence cytometer (SPT Labtech, UK) using a 640 nm laser for excitation and measuring emission in the FL-4 channel (650-690 nm). Data was analysed as Count x median mean intensity (x FLU). All dilutions were performed in Hanks' balanced salt solution (Sigma, UK; cat: H8264) containing 0.1% (w/V) BSA (Sigma, UK; cat: A9576). Maximum binding signal was determined by analysing the binding of 5E3 mouse IgG1 to MM.1S cells in the absence of competitor un-purified human IgG1. Background binding signal was determined by analysing the fluorescence generated in the absence of 5E3 mouse IgG1. Data were analysed and graphed using GraphPad Prism software (GraphPad Software, Inc, La Jolla, CA).
Hits from the primary screening were re-formatted into the human Alya IgG1 vector and re-expressed and purified as described in section 4.1. 5E3 epitope competition assay methods are described in section 3.2 and were used to test purified human Alya IgG1s. The purified human Alya IgG1s were diluted to a 4× stock and then serially diluted using 4-fold dilutions to generate a 10 point concentration response curve.

Binder	binding result [1]	IC50 (pM), Fab-ZAP cell kill, NCI-H929 [2] [pM]	Max % Cell Kill, Fab-ZAP, NCI-H929 [2] [%]	IC50 [3] [nM]
B1	binds	167	51	14.9
B2	binds	42	22	71.8
